Source: publication PMC9817130, “Structural insights into broadly neutralizing antibodies elicited by hybrid immunity against SARS-CoV-2” (Emerging Microbes & Infections, 2023)

Target: T1, SARS-CoV-2 WT RBD protein (Sino Biological) (SARS-CoV-2 WT, UniProt P0DTC2)
T1 construct: also called viral RBD; immobilized RBD
Experiment: SPR
Settings: both partners purified

B1: LY-CoV1404 (Bebtelovimab) (antibody, V domains shown)
VH: QITLKESGPTLVKPTQTLTLTCTFSGFSLSISGVGVGWLRQPPGKALEWLALIYWDDDKRYSPSLKSRLTISKDTSKNQVVLKMTNIDPVDTATYYCAHHSISTIFDHWGQGTLVTVSS
VL: QSALTQPASVSGSPGQSITISCTATSSDVGDYNYVSWYQQHPGKAPKLMIFEVSDRPSGISNRFSGSKSGNTASLTISGLQAEDEADYYCSSYTTSSAVFGGGTKLTVL
notes: also called class III LY-CoV1404
binding result: binds
